# According to patent US20150079112A1 (SAMSUNG ELECTRONICS, published 2015):
# B1: 4H10 (antibody, V domains shown)
# VH: EVQLLESGGGLVQPGGSLRLSCAASGFTFSSYDMSWVRQAPGKGLEWVSLISPDSSSIYYADSVKGRFTISRDNSKNTLYLQMNSLRAEDTAVYYCAKDLISFWRGGFDYWGQGTLVTVSS
# VL: QSVLTQPPSASGTPGQRVTISCSGSSSNIGSNYVNWYQQLPGTAPKLLIYADSNRPSGVPDRFSGSKSGTSASLAISGLRSEDEADYYCGSWDYSLSGYVFGGGTKLTVLG
# notes: also called antibody 4H10
# B2: FLAG-tagged hAng2 (ligand)
# chain: YNNFRKSMDSIGKKQYQVQHGSCSYTFLLPEMDNCRSSSSPYVSNAVQRDAPLEYDDSVQRLQVLENIMENNTQWLMKLENYIQDNMKKEMVEIQQNAVQNQTAVMIEIGTNLLNQTAEQTRKLTDVEAQVLNQTTRLELQLLEHSLSTNKLEKQILDQTSEINKLQDKNSFLEKKVLAMEDKHIIQLQSIKEEKDQLQVLVSKQNSIIEELEKKIVTATVNNSVLQKQQHDLMETVNNLLTMMSTSNSAKDPTVAKEEQISFRDCAEVFKSGHTTNGIYTLTFPNSTEEIKAYCDMEAGGGGWTIIQRREDGSVDFQRTWKEYKVGFGNPSGEYWLGNEFVSQLTNQQRYVLKIHLKDWEGNEAYSLYEHFYLSSEELNYRIHLKGLTGTAGKISSISQPGNDFSTKDGDNDKCICKCSQMLTGGWWFDACGPSNLNGMYYPQRQNTNKFNGIKWYYWKGSGYSLKATTMMIRPADF
# notes: not shown: FLAG tag
# B3: Ang2 protein (R&D systems) (ligand)
# chain: B2 chain
# notes: It may be the same product as the C-His hAng2 of the SPR; also called human Ang2 protein (R&D systems; 623-AN-025/CF)
# What was measured:
# [1] = biological target: B2; experiment: competition ELISA: antibody titrated with FLAG-tagged hAng2 (400 ng/ml) on coated hTie2-Fc, bound Ang2 detected with anti-FLAG-HRP; blocked ligand pair Ang2-Tie2
# Experimental: (§1) More specifically, MaxiSorp™ flat-bottom plate (Nunc) of 96-well was coated with hTie2-Fc (R&D Systems) which is a protein bound with 4 ug (microgram)/ml of Fc of human IgG1. After that, the plate was washed five times with 0.05% (v/v) Tween-20-containing PBS (phosphate buffer saline) and then blocked with 1% (v/v) BSA (bovine serum albumin; Sigma)-containing PBS at a room temperature for 2 hour.
# For Ang2:Tie2 competition ELISA, each anti-Ang2 antibody obtained in Example 2 was placed at various concentrations of 400 nM to 0.001 nM into each well coated with the hTie-2/Fc fusion protein along with 1% (v/v) BSA and 400 ng/ml of a FLAG-tagged hAng2 and then, the plate was allowed to react at a room temperature for 2 hours and washed five times with PBST. After that, an anti-FLAG antibody (Sigma) conjugated with HRP diluted in 1% (v/v) BSA-containing PBS at a ratio of 1:5,000 (v/v) was added in an amount of 100 ul (microliter) to each well to react at a room temperature for 1 hour and then, the plate was washed five times with PBST. Lastly, 100 ul (microliter) of TMB substrate (Cell Signaling) was added to each well of the plate to induce color development for 3 min. and then, the reaction was ceased by the addition of 100 ul of Stop solution (Cell Signaling) and OD450 values were measured on a plate reader (Molecular Devices). […]
# [2] = biological target: T1, hTie2-Fc (R&D Systems) (human, UniProt Q02763 23-745); experiment: competition ELISA: FLAG-tagged hAng2 (400 ng/ml) bound to coated hTie2-Fc in the presence of titrated 10D6, detected with anti-FLAG-HRP
# T1 construct: also called hTie-2/Fc fusion protein; not shown: Fc of human IgG1
# T1 sequence (Q02763 23-745 limits assumed): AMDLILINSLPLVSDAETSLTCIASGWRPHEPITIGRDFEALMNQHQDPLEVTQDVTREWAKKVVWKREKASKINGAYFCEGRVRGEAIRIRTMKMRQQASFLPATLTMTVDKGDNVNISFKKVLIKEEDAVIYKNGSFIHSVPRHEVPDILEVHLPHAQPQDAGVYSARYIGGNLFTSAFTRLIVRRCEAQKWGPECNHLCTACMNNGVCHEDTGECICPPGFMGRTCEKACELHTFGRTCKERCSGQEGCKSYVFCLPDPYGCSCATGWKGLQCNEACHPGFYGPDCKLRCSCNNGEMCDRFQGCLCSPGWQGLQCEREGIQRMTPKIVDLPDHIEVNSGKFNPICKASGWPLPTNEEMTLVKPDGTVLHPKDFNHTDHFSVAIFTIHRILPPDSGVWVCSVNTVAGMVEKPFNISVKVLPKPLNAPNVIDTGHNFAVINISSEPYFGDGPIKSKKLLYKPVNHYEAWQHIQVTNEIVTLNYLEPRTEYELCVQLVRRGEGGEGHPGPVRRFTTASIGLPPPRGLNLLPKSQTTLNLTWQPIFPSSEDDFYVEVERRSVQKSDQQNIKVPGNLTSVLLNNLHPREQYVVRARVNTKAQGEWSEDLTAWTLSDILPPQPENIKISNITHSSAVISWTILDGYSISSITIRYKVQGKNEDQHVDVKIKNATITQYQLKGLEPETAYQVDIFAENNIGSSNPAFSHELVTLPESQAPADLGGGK
# Experimental: as §1
# For Ang2:Tie2 competition ELISA, each anti-Ang2 antibody obtained in Example 2 was placed at various concentrations of 400 nM to 0.001 nM into each well coated with the hTie-2/Fc fusion protein along with 1% (v/v) BSA and 400 ng/ml of a FLAG-tagged hAng2 and then, the plate was allowed to react at a room temperature for 2 hours and washed five times with PBST. After that, an anti-FLAG antibody (Sigma) conjugated with HRP diluted in 1% (v/v) BSA-containing PBS at a ratio of 1:5,000 (v/v) was added in an amount of 100 ul (microliter) to each well to react at a room temperature for 1 hour and then, the plate was washed five times with PBST. Lastly, 100 ul (microliter) of TMB substrate (Cell Signaling) was added to each well of the plate to induce color development for 3 min. and then, the reaction was ceased by the addition of 100 ul of Stop solution (Cell Signaling) and OD450 values were measured on a plate reader (Molecular Devices).
# [3] = biological target: T1, hTie2-Fc (R&D Systems); experiment: ELISA, coated Tie2-Fc 4 ug/ml, Ang2 0.25 ug/ml and 10D6 2 ug/ml added, anti-mouse IgG-HRP, OD450
# Experimental: A 96-well MaxiSorp™ flat-bottom plate (Nunc) was coated with 4 ug/ml of Tie2-Fc (R&D systems) or BSA (Sigma). Then, the plate was washed five times with 0.05% (v/v) Tween-20-containing PBS (Phosphate Buffer Saline) and blocked with 1% (v/v) BSA (Bovine serum albumin; Sigma)-containing PBS at a room temperature for 2 hours. 0.25 ug/ml of Ang2 and 2 ug/ml of antibody 10D6 were added to each well of the plate, which was allowed to react at a room temperature for 2 hours and then washed five times with PBST. After that, an anti-mouse IgG antibody (Sigma) conjugated with HRP diluted in 1% (v/v) BSA-containing PBS at a ratio of 1:5,000 (v/v) was added in an amount of 100 ul to each well to react at a room temperature for 1 hour and then, the plate was washed five times with PBST. Lastly, 100 ul (microliter) of TMB substrate (Cell Signaling) was added to each well of the plate to induce color development for 3 min. and then, the reaction was ceased by the addition of 100 ul of Stop solution (Cell Signaling) and OD450 values were measured on a plate reader (Molecular Devices).
binder,measurement,setting,value
B1,IC50 (read off the curve),[1],~0.2 nM
B2,binding result,[2],binds
B3,binding result,[3],binds
